Values belong to the binder of their own block, whether it stands above or below them.
Biological target: T1, Recombinant human Gβ1γ2 (human, UniProt P62873 1-340; P59768 1-71)
T1 construct: G-protein beta 1 subunit, human, recombinant; G-protein gamma 2 subunit, human, recombinant; Preformed heterodimer bought as such; detected by an anti-Gβ antibody; also called Gβγ; purified Gβγ; source: bought: Calbiochem-Merck Millipore (recombinant)
Test: pull-down; competition: GST-AGS8-C (100 nM) incubated with recombinant human Gβ1γ2 (10 nM) in the presence of rising doses of peptide CP1 or CP9, adsorbed to a glutathione matrix; immunoblot with densitometry, n = 6
Conditions: both partners purified

IC50: 2.77 µM
B1: AGS8-peptide CP9 (peptide)
peptide: SFVIVDWNKAIPGDVVTGYLVYSASYEDFI
notes: About 97% HPLC purity; source: synthetic peptide (Invitrogen)

IC50: 6.73 µM
B2: AGS8-peptide CP1 (peptide)
peptide: APRNITVVAMEGCHSFVIVDWNKAIPGDV
notes: as for B1

From PMC3954831, “Protection of Cardiomyocytes from the Hypoxia-Mediated Injury by a Peptide Targeting the Activator of G-Protein Signaling 8” (PLoS ONE, 2014)
